The record followed here is publication PMC12104086 (2025).

One may read the Kd as the equilibrium constant for the complex coming apart.

Common to all, as to assay: SPR
Test [1] concerns the target T1, recombinant human alphavbeta3 integrin (human, UniProt P06756 31-1048; P05106 27-718).
T1 chain 1: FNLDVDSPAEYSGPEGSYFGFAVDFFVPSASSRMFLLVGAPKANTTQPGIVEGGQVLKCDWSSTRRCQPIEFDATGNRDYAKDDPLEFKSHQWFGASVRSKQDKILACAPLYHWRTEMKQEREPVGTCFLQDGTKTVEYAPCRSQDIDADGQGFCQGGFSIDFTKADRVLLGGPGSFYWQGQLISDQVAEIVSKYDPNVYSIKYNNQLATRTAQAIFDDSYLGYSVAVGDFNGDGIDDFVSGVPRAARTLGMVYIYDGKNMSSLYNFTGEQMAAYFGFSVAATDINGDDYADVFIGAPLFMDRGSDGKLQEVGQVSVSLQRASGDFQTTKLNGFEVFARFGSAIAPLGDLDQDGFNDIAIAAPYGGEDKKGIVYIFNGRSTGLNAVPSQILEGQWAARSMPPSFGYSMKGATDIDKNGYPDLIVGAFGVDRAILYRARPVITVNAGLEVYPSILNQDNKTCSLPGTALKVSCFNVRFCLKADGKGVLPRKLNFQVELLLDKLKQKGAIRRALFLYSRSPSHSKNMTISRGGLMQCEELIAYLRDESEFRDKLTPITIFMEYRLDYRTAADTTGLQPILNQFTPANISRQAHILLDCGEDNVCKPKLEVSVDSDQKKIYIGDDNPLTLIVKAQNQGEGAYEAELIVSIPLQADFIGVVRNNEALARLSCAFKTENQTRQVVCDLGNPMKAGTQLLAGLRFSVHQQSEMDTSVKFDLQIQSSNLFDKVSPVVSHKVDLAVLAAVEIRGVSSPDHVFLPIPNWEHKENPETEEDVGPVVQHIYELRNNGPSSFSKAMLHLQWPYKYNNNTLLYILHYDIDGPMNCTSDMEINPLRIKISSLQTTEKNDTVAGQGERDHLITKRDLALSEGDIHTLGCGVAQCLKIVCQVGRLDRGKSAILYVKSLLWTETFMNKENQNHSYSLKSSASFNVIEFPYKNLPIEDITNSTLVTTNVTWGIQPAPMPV
T1 chain 2: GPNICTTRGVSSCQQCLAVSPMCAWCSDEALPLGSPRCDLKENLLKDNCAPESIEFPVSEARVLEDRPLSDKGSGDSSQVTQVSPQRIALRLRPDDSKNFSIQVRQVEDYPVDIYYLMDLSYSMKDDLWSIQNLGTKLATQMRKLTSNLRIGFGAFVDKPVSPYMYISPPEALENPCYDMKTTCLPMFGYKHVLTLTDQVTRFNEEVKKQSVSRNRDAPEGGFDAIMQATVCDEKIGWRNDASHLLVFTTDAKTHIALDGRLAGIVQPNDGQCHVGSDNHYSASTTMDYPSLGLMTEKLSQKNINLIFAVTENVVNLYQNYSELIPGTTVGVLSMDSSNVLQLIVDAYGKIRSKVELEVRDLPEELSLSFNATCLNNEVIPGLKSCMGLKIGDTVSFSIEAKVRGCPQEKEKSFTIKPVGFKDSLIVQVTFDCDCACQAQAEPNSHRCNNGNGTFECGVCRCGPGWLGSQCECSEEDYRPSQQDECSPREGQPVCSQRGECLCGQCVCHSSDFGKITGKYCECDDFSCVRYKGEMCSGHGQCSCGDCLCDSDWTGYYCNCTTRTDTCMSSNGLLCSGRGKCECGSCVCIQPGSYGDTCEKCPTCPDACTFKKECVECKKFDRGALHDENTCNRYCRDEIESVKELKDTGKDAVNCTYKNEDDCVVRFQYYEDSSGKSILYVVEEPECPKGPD

Test [2] has as its target T2, recombinant mouse cold-inducible RNA-binding protein (mouse, UniProt P60824 1-172).
T2 chain: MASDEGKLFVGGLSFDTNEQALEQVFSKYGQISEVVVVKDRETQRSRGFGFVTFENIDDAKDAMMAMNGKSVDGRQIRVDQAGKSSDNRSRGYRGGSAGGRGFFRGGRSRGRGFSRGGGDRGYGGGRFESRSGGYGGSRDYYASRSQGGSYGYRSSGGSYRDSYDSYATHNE

Test [3] addresses recombinant human histone H3 (human, UniProt P68431 1-136).
Test [4] deals with T3, recombinant human high mobility group box 1 (human, UniProt P09429 1-215).
T3 chain: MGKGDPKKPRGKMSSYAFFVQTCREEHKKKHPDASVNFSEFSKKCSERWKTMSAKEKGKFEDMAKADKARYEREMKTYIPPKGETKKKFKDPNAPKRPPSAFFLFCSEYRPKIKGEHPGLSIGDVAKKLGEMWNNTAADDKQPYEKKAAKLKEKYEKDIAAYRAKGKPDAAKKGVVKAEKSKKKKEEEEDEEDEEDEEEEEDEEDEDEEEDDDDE

As for GNFNSSNIMKTCLQNRGD [opsonic peptide 18], the Kd in test [1] was 1.1 nM; in test [2] it was 1.5 nM; in test [3], 2.1 nM; in test [4] it was 3.9 nM.
